The nanobody polyreactivity screen of Harvey et al. (2022)

Experiment: yeast display, Sf9 membrane polyspecificity reagent, FACS + sequencing; frameworks hold sequencing errors
How it was run: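 Using colony PCR, genes from sorted yeast display clones were amplified, then sequenced on MiSeq at 2 × 250 and filtered by CDR length. The clones had been stained with 10% biotinylated, detergent-solubilized Sf9 membrane reagent for 1 hour at 4 °C and sorted by FACS into low and high (top ~1%) gates on anti-HA and streptavidin fluorescence. Polyreactivity labels come from the gate of origin.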

Sequence | polyreactivity (PSR sort gate)
QVQLVESGGGLVQAGGSLRLSCAASGSIFLVYAMGWYRQAPGKERELVAAIRISDSTNYADSVKGRFTISRDNAKNTVYLQMNSLKPEDTAVYYCNVDTVGLGGEKGGYYWGQGTQVTVSS | low polyreactivity
QVQLVESGLGLVQAGGSLRLSCAASGRTFYYNAMGWYRQAPGKERELVAAISWSGGNTYYADSVKARFTISRDNAKNTVYLQMNSLKPEDTAVYYCAAVYRYYPGYDYWGHGTQVTVSS | high polyreactivity
QVQLVESGGGLVPAGGSLLLSCAASGLTFYVYAMGWYRQAPGKERELVAAISSGGRTYYADSVKGRFTISRDNAKNTVYLQMNSLKPEDTAVYYCAAFRHRNYGYWGQGTQVTVSS | high polyreactivity
QVQLVDSGGGLVQAGGSLRLSCAASGLTIPVYTMVWYRHAPGTEREFVAAITYNGGRTYYADCVKGRFTISRDNAKNTVYLQMNSLKPEDTAVYYCAAEYGTYFVRYYAGASYRYGYWGQGTQVTVSS | low polyreactivity
QVQLVESVVGLDQAGGSLSLSCAASAIILYYYSMGWYRQAPGKEREVVAAISSGGNTYYADSVKGRFTISRDNAKNTVYFQMNSLKPEDTAVYYCAAGNVIGGEYDYWGLGTQVTVSS | low polyreactivity
QVQLVESGGGLVQAGGSLRLSCAASGFTFGSNAMGWYRQAPGKERELVAAISSTGSTYYADSVKGRFTISRDNAKNTVYLQMNSLKPEDTAVYYCNADSDTPRYDYWGQGTQVTVSS | low polyreactivity
QVHLVESGGGLVQAGGSLRLSCAASGITFEGYAMGWYRQAPGKERELVAAIRSSGTSTYYADSVKGRFTISRDNAKNTVYLQMNSLKPEDTAVYYCNRARSSSRYDYWGQGTQVTVSS | low polyreactivity
QVQLVESGGGLVQAGGSLRISCAASGRTFTRYAMGWYRQAPGKERELVASITTGGRTYYADSVKGRFTISRDNAKNTVYLQMNSLKPEDTAVYYCNADRVYAWYRTYDYWGQGTQVTVSS | high polyreactivity
QVHLVESGGGLVQAGGRLRLSCAASGRTFFWYAMGWYRQAPGKEREFVAAITWRTGSTYYADSVKGRFTLSRDNAKNTVYLQMNSLKPEDTAVYYCAGEFPWSFATYYSWGQGTQVTVSS | high polyreactivity
QVQLVESGGGLVQAGGSLRLSCAASGFTFTRYAMGWYRQAPGKERELVADITRSGGTTYYADSVKGRFTISRDNAKNTVYLQMNSLKPEDTAVYYCAADTYSHGRYYRMDYWGQGTQVTVSS | high polyreactivity
QVQLVESGGGLVQAGGSLSLSCAASGITFVWYALGWYRQAPGTERELVAAISRGGSTYYADSVKGRFTISRDNAKNTVYLQMNSLKPEDTAVYYCNAESAARSTVQQARGYYWGQGTQVTVSS | high polyreactivity
QVQLVESGGGLVQAGGSLRLSCAASGRTFGFYGMGWYRQAPGKEREFVAAITRRGGSTYYADSVKGRFTISRDNAKNTVYLQMNSLNPEDTAVYYCNAARGAYYRWWGFGSDYWGQGTQVTVSS | high polyreactivity
QVQLVESGGGLVQAGGSLRLSCAASGRIFTRYAMGWYRQAPGKERELVAVITRSGGSTYYADSVKGRFTLSRDNAKNTVYLQMNSLKPEDTAVYYCAAKYYGEMYYWGQGTQVTVSS | low polyreactivity
QVQLVESGGGLVQAGGSLRLSCAASGLTLKTYAMGWYRQAPGKERELVAGISASGGSTYYADSVKGRFTISRDIAKNTVYLQLNSLKPVDTAVYYCAKVTRAYRAYYYWGQGTQVTVSS | high polyreactivity
QVQLVESGGGIVQAGGSLRLSCAASGLTFWPYAMGWYRQARGKERELVAAISYNSGRTYYADSVKGRFTISRDNAKNTVYLQMNSLKPEDTEVYYCAVEWSLSRYYYWGQGTQVTVSS | high polyreactivity
QVQLVESVGGLVQAGGSLRLSCAASGRIFGWYAMGWYRQAPGKERELVAAITSGGTTYYADSVKGRFTISRDNAKNTVYLQMNSLKPEDTAVYYCAKYHWRLSFSRYPYDYWGQGTQVTVSS | high polyreactivity
QVQLVESGGGLVQAGGSLRLICAASGFIFGKYVMGWYRQAAGKERELVAAITSSGGRTYYADSVKGRFTISRDNAKNTVYLQMNSLKPEDTGVYYCAARYVSYWPWFEYDYWGQGTQVTVSS | high polyreactivity
QVQLVESGGGLVQAGGSLRLSCAASGSIFARYAMGWYRQAPGKERELVAAITRSGVSTYYADSVKGRFTISRDNAKNTVYLQMNSLKPEDTAVYNCNAYYPIRSTPYGYYYWGQGTQVTVSS | high polyreactivity
QVQLVESGGGLVQAGGSLRLSCDASGGTFPYYAMGWYRQATGKERELVPDISGTDGSTYYADSVKGRFTISRDNANYTVYLQMNSLKPEDTAVYYCNADPHWWYWDYDYWGQGTQVTVSS | high polyreactivity
QVQLVESGGGLVQAGCSLRLSCAASGSIFEPYVMGWYRQAPGKERELVAAIRQTGGSTYYADSVKGRFKISRDNAKNTVYLQMNSLKPEDNAFYYCNAEHNPSGLYDYRGVECEMGYWGQGNQVTVSS | low polyreactivity
QVQLVESGGGLVQAGGSLRLSCAASGSIFYRITMGWYRQAPGKERELVAAISTNGGSTYYADSVKGRFTISRDNAKNSVYLQMNSLKPEDTAVYYCAADLRRSDYDYWGQGTQVTVSS | high polyreactivity
QVQLVESGGGLVHAGGSHRLSCAATGRIFDANARGGYRQAPGKERELVAVISSRGGSTYYADSVKGRFTISRDNAKNTVYLQMNSLKPEDTAVYYCAKGFSVAGYDYWGQGTQVTVSS | low polyreactivity

Sequence | polyreactivity (PSR sort gate)
QVQLVESGGRLVQAGGSLRLSCAASGYIFDWNAMGWYRQAPGKERELVAAISSGGRTNYADSVKGRFTISRDNAKITVYLQMNSLKPEDTAVYYCAAVYTDPYVEYDYWGQGTQVTVSS | low polyreactivity
QVQLVESGGGLVQAGGSLRLSCAASGNTYLNAMGWYRQAPGKERELVAAISKGGADTYYADSVKGRFTISRDNAKNTVYLQMNSLKPEDTAVYYCAADGYADGWWVEYPWTYDYWGQGTQVTVSS | low polyreactivity
QVQLVESGGGLVQAGGSLRLSCAASGLTFSVYAMGWYRQAPGKERELVAAITSSGRTYYADSVKGRFTISRDNAKNTVYLQMNSLKPEDTAVYYCAAGYKSGPRRYYYWGQGTQVTVSS | high polyreactivity
QVQLVESGGCLVQAGGSLRLTCAASGFTFVYNAMGWYRQDPGKERELVARISVSGGSTYYADSVKGRFTISRDNAKNTVYLQMNSLKPEDTSVYYCAAELSAPQPDYQLKVDYYYWGQGTQVTVSS | low polyreactivity
QVQLLESGGGLVQAGGSLRLSCAASGRTFTYYAMGWYRQAPGKERELVASISTTGRTYYADSVKGRFTISRDNAKNTVYLQMNSLKPDDTAVYYCATRSRYYYDYWGQGTQVTVSS | high polyreactivity
QFQLVESGGGLVQAGGSLRLSCAASGSTFVYYAMGWYRQAPGKERELVAAITASGGGTYYADSVKGRFTISRDNAKNTVYLQMNSLKPEDTAVYYCAAYLGWGYDYWGQGTQVTVSS | low polyreactivity
QVQLVESAGGLVQAGGSLRLSCAASGYTFDFYAMGWYRQAPGKERELVAAISKNDGTTYYADSVKGRFTISRDNAKNTVYLQMNSLKPEDTAVYYCAAESGYPVYTYVSSGDYWGQGTQVTVSS | low polyreactivity
QVQLVESGGGLVQAGGSLRLSCAASGSTFSRYAMGWYRHAPGKERELVAAISSSGGGTYYADSVKGRFTISRDTAKNTVFFQMNSLKPEDTAVYYCAKSYRRRQGYYYWGQGTQVTVSS | high polyreactivity
QVQLVESGGGLVQAGGSLRLSCSASGFTFRVNALGWYRQAPGKERELVAAITYSGGSTYYADSVKGRFTISRDNAKNTVYLQMNSLNPEDTAVYYCAAGYFFPRLRFRNYAYGYWGQGTQVTVST | high polyreactivity
QVQLVESGGGLVQAGGSLRLSCPASGSTFARNAMGWSRQAPGKEREFVASIRWGGGSTYYADSVKARFTISRDNAKNTVYLQMNSLKAEDTAVYYCATRGWSKHLFGGYTQYYYWGQGTQVTVSS | high polyreactivity
QVQLVESGGGLVQAGGSLRLSCAASGSTFGYNAMGWYRQAPGKERELVAAINFRSDRTFYADSVKGRFTISRDNAKNTVYLQMNSLKPEDTAVYYCAAKPTTYYGNSDYWGQGTQVTVSS | high polyreactivity
QVHLVESGGGLVQAGGSLRLSCAASGFTFRRYAMGWYRQAPGKERELVAAISYGGGRTYYADSVKGRFTISRDNAKNTVYLQMNSLKPEDTAVYYCAADVQSRYVGEGDYWGQGTQVTVSS | high polyreactivity
QVQLVKSGGGLVQAGGSLRLSCAASGFIIPEYTMGWYRPAPGKERELVAAISGSGGSTYYADSVKGRFTISRDNAKNTVYLQMNSLKPEDTAVYYCAASYAVSRYLQTYAHAHGYWGQGTQVTVSS | low polyreactivity
QVQLVESGGGLVQAGGSLRLSCAASGGISDVYAMGWYRQAPGKERELVAAINWSGGSTYYADSVKGRFTISRDNAKNTVYLQMNSLKPEDTAVYYCAADPGIIGTFDWYDYWGQGTQVTVSS | low polyreactivity
QVQLVESGGGLVQAGGSLRLSCAASGSIFSDNAMGWYRQAPGKERELVAGISSGGGTNYADSVKGRFTISRDNAKNTVYLQMNSLKPEDTGVYDCNADQRDGLELDYWGQGTQVTVSS | low polyreactivity
QVQLVESGGGLVQAGGSLRLSCAASGSILRSYAMGWYRQAPGKERELVAVINGSGGRTYYADSVKGRFTISRDNAKNTVYLQMNSLKPEDTAVYYCAARRHTKRPGYDYWGQGTQVTVSS | low polyreactivity
QVQLVESGGGLVQAGGSLRLSCAASGSTFRQNAMGWYRQAPGKERELVAAISGTAGSTYYADSVKGRFTISRDNAKNTVYLQMNSLKPEDTAVYYCAKRKITKYGYGYWGQGTQVTVSS | high polyreactivity
QVQLVESGGGLVQAGGSLRLSCAASGFTFRANGMGWYRQAPGKERELVATITSGGTTNYADSVKGRFTISRDNAKNSVYLQMNSLIPEDTAVYYCAKRFGPAYFRLYDYWGQGTQVTVSS | low polyreactivity
QVQLVESGGGLVQAGGSLRLSCAASGFTSRKNAMGWYSQAPGKERELVAAITQSSGRTYYADSVKGRFTISRDNAKNTVYLQMNSLKPEDTAVYYCAARRGGEDDYWGQGTQVTVSS | low polyreactivity
QVQLVESGGGLVQAGGSLRLSCAASGFTLVYYVMGWYRQAPGKERELVARISRGGSTNYADSVKGRFTISRDNAKNTVYLQMNSLKPEDTAVYYCAARRTSWQGFNYWGQGTQVTVAS | high polyreactivity
QVQLVESGGCLVQAGGSLRLSCAASGSTFPVYSMGWYRQAPGKERELVAAISYSGGSTNYADSVKGRFTISRDNAKNTVYLQMNSLKPEDTAVYYFAADTESHHEGNYWGQGTQVTVSS | low polyreactivity
